For orientation: koff means a measure of how fast the partners let go of each other. Higher therefore signals fast dissociation. For orientation: kon means the second-order rate constant of association. A higher kon goes with fast association. As usually defined, the Kd is the constant that tells how readily two partners part at equilibrium. A word on the EC50: it is the concentration giving half of the maximal effect.

Here are results for six molecules from patent US20240368242A1 (SHATTUCK LABS, published 2024).

The chains are these.
B6: murine CD172a(SIRPα)-Fc-CD40L chimeric protein (Fc fusion)
chain 1: KELKVTQPEKSVSVAAGDSTVLNCTLTSLLPVGPIRWYRGVGPSRLLIYSFAGEYVPRIRNVSDTTKRNNMDFSIRISNVTPADAGIYYCVKFQKGSSEPDTEIQSGGGTEVYVLAKPSPPEVSGPADRGIPDQKVNFTCKSHGFSPRNITLKWFKDGQELHPLETTVNPSGKNVSYNISSTVRVVLNSMDVNSKVICEVAHITLDRSPLRGIANLSNFIRVSPTVKVTQQSPTSMNQVNLTCRAERFYPEDLQLIWLENGNVSRNDTPKNLTKNTDGTYNYTSLFLVNSSAHREDVVFTCQVKHDQQPAITRNHTVLGFAHSSDQGSMQTFPDNNATHNWN
chain 2: HRRLDKVEEEVNLHEDFVFIKKLKRCNKGEGSLSLLNCEEMRRQFEDLVKDITLNKEEKKENSFEMQRGDEDPQIAAHVVSEANSNAASVLQWAKKGYYTMKSNLVMLENGKQLTVKREGLYYVYTQVTFCSNREPSSQRPFIVGLWLKPSSGSERILLKAANTHSSSQLCEQQSVHLGGVFELQAGASVFVNVTEASQVIHRVGFSSFGLLKL

The target of test [1] is B6. Kind of test: SPR, binding to mCD40. In general terms: SPR reads the build-up and loss of mass on a sensor chip optically.
The target in test [2] is T1, recombinant human OX40-His protein (human, UniProt P43489 29-216).
T1 construct: also called polyhistidine-tagged recombinant human OX40; hOX40; not shown: polyhistidine tag
T1 sequence (looked up): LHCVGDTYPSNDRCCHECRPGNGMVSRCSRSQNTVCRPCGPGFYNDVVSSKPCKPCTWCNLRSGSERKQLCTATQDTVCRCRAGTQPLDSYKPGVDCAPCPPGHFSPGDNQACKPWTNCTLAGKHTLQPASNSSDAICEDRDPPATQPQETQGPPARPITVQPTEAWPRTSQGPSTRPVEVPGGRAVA
Kind of test: SPR, His-tagged target on ProteOn HTG tris-NTA chip, positive control. From the text: Specifically, polyhistidine-tagged versions of recombinant human PD-L1, PD-L2, or OX40 was bound to ProteOn HTG tris-NTA chips (BIORAD).

For test [3], the target named is T2, OX40 receptor used in the functional ELISA of Example 12 (human, UniProt P43489 29-216).
T2 construct: also called hOX40
T2 sequence (looked up): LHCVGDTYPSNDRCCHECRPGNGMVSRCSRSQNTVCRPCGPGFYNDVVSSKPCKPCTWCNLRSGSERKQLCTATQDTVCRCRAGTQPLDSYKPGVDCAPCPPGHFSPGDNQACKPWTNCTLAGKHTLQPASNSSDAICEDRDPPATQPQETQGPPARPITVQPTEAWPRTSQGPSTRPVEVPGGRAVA
As to the kind of experiment: ELISA, plate-bound OX40, detection with αOX40L and HRP detection antibody; fold dilution series. On the technique in general: In an ELISA, binding on a coated surface is turned into a signal by an enzyme label.

Another test addresses T3, FcRn-His (Example 11).
T3 construct: A beta-2-microglobulin chain is not mentioned
As to the kind of experiment: SPR (BioRad ProteOn XPR 360), His-tagged target chip-bound.

Test [4] has as its target T4, human OX40 expressed on Jurkat cells (Jurkat/hOX40) (human, UniProt P43489 29-277).
T4 construct: whole, on cells
T4 sequence (looked up): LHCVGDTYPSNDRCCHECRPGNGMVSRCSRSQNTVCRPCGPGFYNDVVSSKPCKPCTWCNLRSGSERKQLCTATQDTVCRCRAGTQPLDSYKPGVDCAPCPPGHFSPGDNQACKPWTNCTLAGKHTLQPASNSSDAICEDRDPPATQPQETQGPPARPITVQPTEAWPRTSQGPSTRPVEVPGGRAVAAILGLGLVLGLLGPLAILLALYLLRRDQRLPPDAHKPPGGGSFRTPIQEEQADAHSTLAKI
Kind of test: flow cytometry on Jurkat-hOX40 cells; Jurkat cells without hOX40 as control.

Test [5] deals with T2, OX40 receptor used in the functional …. As to the kind of experiment: functional ELISA on human OX40; x axis is dilution (1 to 16), concentration not given.
For test [6], the target named is plate-bound recombinant human PD-L1 protein (human, UniProt Q9NZQ7 19-238, limits assumed). Kind of test: functional ELISA on human PD-L1; x axis is dilution (1 to 16), concentration not given.
For the next test, the target named is T5, TNFRSF4.
T5 construct: also called TNF Receptor Superfamily Member 4; canonical isoform
T5 chain: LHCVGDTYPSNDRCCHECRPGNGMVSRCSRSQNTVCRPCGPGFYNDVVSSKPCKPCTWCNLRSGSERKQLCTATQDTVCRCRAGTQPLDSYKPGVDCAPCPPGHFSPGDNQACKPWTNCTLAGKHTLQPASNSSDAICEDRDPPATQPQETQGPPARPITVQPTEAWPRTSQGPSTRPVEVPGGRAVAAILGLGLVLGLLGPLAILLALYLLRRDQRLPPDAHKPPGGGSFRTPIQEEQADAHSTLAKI
As to the kind of experiment: microarray containing about 6,000 human membrane proteins.

The next test concerns the target Galectin-1 (human, UniProt P09382 2-135, limits assumed). Described as above.
Test [7] has as its target T6, murine CD40 expressed on CHOK1 cells (CHOK1/mCD40) (murine, UniProt P27512 20-289).
T6 construct: whole, on cells
As to the kind of experiment: flow cytometry on CHOK1/mCD40 cells. Background: Flow cytometry measures light scatter and fluorescence of single cells or particles in a stream.

T3 sequence (Q61559 22-297, chain 1 of 2): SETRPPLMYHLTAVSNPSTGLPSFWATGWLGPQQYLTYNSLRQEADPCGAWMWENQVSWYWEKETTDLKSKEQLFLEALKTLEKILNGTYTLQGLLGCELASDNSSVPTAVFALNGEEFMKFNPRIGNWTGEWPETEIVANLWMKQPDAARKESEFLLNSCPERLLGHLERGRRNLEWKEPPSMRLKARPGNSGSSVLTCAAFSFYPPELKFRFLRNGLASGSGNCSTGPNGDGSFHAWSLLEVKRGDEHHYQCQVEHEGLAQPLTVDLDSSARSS
T3 sequence (P01887 21-119, chain 2 of 2, further chain): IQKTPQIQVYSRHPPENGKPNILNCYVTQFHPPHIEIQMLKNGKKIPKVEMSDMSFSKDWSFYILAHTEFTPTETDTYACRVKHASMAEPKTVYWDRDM
Galectin-1, sequence (P09382 2-135 limits assumed): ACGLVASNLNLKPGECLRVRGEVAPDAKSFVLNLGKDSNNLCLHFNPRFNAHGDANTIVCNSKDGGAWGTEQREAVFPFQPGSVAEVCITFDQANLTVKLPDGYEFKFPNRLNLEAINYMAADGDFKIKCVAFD
plate-bound recombinant human PD-L1 protein, sequence (Q9NZQ7 19-238 limits assumed): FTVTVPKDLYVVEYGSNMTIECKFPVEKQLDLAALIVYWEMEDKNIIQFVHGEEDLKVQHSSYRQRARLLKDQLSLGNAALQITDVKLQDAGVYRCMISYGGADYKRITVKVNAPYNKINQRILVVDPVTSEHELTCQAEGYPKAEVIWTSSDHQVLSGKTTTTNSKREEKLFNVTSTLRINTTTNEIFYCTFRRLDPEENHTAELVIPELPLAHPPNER
T6 sequence (P27512 20-289): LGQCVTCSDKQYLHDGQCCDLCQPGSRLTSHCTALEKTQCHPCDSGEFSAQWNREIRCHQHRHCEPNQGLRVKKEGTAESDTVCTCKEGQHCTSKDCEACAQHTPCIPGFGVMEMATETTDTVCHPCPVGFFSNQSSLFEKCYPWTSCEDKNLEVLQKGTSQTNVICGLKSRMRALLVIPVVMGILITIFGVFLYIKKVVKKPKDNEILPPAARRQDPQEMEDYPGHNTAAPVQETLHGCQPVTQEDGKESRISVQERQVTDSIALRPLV

B1: recombinant murine CD40 protein (receptor, UniProt P27512 24-193, looked up)
chain: VTCSDKQYLHDGQCCDLCQPGSRLTSHCTALEKTQCHPCDSGEFSAQWNREIRCHQHRHCEPNQGLRVKKEGTAESDTVCTCKEGQHCTSKDCEACAQHTPCIPGFGVMEMATETTDTVCHPCPVGFFSNQSSLFEKCYPWTSCEDKNLEVLQKGTSQTNVICGLKSRMR
notes: also called mCD40
With B1, in test [1], the off-rate (koff) worked out at 5.51e-05 s⁻¹ and the kon was 72800 M⁻¹ s⁻¹.

B2: recombinant human OX40L-Fc (Fc fusion, UniProt P23510 51-183, looked up)
chain: QVSHRYPRIQSIKVQFTEYKKEKGFILTSQKEDEIMKVQNNSVIINCDGFYLISLKGYFSQEVNISLHYQKDEEPLFQLKKVRSVNSLMVASLTYKDKVYLNVTTDNTSLDDFHVNGGELILIHQNPGEFCVL
notes: Positive control in SPR; not shown: Fc not described
On to B2, for which the binding result in test [2] and in [3] was “binds” each time.

B3: murine PD-1-Fc-OX40L chimeric protein (Fc fusion)
chain 1: LEVPNGPWRSLTFYPAWLTVSEGANATFTCSLSNWSEDLMLNWNRLSPSNQTEKQAAFCNGLSQPVQDARFQIIQLPNRHDFHMNILDTRRNDSGIYLCGAISLHPKAKIEESPGAELVVTERILETSTRYPSPSPKPEGRFQGM
chain 2: SSSPAKDPPIQRLRGAVTRCEDGQLFISSYKNEYQTMEVQNNSVVIKCDGLYIIYLKGSFFQEVKIDLHFREDHNPISIPMLNDGRRIVFTVVASLAFKDKVYLTVNAPDTLCEHLQINDGELIVVQLTPGYCAPEGSYHSTVNQVPL
With B3, in the test with FcRn-His (Example 11), the Kd was 55.6 nM, the koff came out at 0.00262 s⁻¹ and the kon stood at 47200 M⁻¹ s⁻¹.

B4: human PD-1-Fc-OX40L chimeric protein treated with the deglycosylase PNGase F (Fc fusion)
chain: LDSPDRPWNPPTFSPALLVVTEGDNATFTCSFSNTSESFVLNWYRMSPSNQTDKLAAFPEDRSQPGQDCRFRVTQLPNGRDFHMSVVRARRNDSGTYLCGAISLAPKAQIKESLRAELRVTERRAEVPTAHPSPSPRPAGQFQSKYGPPCPSCPAPEFLGGPSVFLFPPKPKDTLMISRTPEVTCVVVDVSQEDPEVQFNWYVDGVEVHNAKTKPREEQFNSTYRVVSVLTVLHQDWLSGKEYKCKVSSKGLPSSIEKTISNATGQPREPQVYTLPPSQEEMTKNQVSLTCLVKGFYPSDIAVEWESNGQPENNYKTTPPVLDSDGSFFLYSRLTVDKSSWQEGNVFSCSVMHEALHNHYTQKSLSLSLGKIEGRMDQVSHRYPRIQSIKVQFTEYKKEKGFILTSQKEDEIMKVQNNSVIINCDGFYLISLKGYFSQEVNISLHYQKDEEPLFQLKKVRSVNSLMVASLTYKDKVYLNVTTDNTSLDDFHVNGGELILIHQNPGEFCVL
modifications: N-glycans removed with PNGase F
notes: also called deglycosylated hPD-1-Fc-OX40L
Take B4: the binding result in test [4], in test [5] and in [6] was “binds” throughout.

B5: human PD-1-Fc-OX40L chimeric protein (Fc fusion)
chain: LDSPDRPWNPPTFSPALLVVTEGDNATFTCSFSNTSESFVLNWYRMSPSNQTDKLAAFPEDRSQPGQDCRFRVTQLPNGRDFHMSVVRARRNDSGTYLCGAISLAPKAQIKESLRAELRVTERRAEVPTAHPSPSPRPAGQFQSKYGPPCPSCPAPEFLGGPSVFLFPPKPKDTLMISRTPEVTCVVVDVSQEDPEVQFNWYVDGVEVHNAKTKPREEQFNSTYRVVSVLTVLHQDWLSGKEYKCKVSSKGLPSSIEKTISNATGQPREPQVYTLPPSQEEMTKNQVSLTCLVKGFYPSDIAVEWESNGQPENNYKTTPPVLDSDGSFFLYSRLTVDKSSWQEGNVFSCSVMHEALHNHYTQKSLSLSLGKIEGRMDQVSHRYPRIQSIKVQFTEYKKEKGFILTSQKEDEIMKVQNNSVIINCDGFYLISLKGYFSQEVNISLHYQKDEEPLFQLKKVRSVNSLMVASLTYKDKVYLNVTTDNTSLDDFHVNGGELILIHQNPGEFCVL
notes: Glycosylated; also called hPD-1-Fc-OX40L
As to B5, the binding result in the test with TNFRSF4 and in the test with Galectin-1 was “binds” each time.

On to B6, for which the EC50 in [7] was determined as 20.2 nM. In other words, the double-digit nanomolar range.
